In US20060062761A1:

Molecular target: HLA-DR DRB1*0701 on fixed MOU (MANN) cells (human)
Assay: competition

Substance: Tetanus toxin 828-840 (from UniProt P04958 828-840)
- IC50: 7 µM
